# Measurements reported in PMC7264160.
# Biological target: Nascent polypeptide-associated complex (NAC) protein of Picrophilus torridus (Picrophilus torridus)
# Experiment: SEC; HiPrep S-200 HR column; elution compared with protein standards run on this column
substance,measurement,value
Nascent polypeptide-associated complex (NAC) protein of Picrophilus torridus (natural protein),stoichiometry N,2
